Source: patent publication CN106117358A (UNIV SUN YAT SEN, dated 2016)
Numbering of substitutions follows the chain as printed.

B1: A30228 (VHH)
VHH: QVKLEESGGGLVQAGDSLTLSCAASGRTFDTMGWFRQAPGKEREFVAAVRWSSGNTYYGNTVKGRFTISRDTATNTVYLEMNSLKHEDTAVYYCAARLAGRGAADHWGQGTQVTVSS
notes: Llama sdAb from a phage display library; Tested as sdAb-SASA protein in E. coli expression medium / culture supernatant (FASEBA format), not purified; 1; also called 抗CD3单域抗体; sdAb; not shown: SASA fusion partner of the pFASEBA vector (sdAb-SASA protein)
B2: A30311 (VHH)
VHH: B1 VHH with D16G, T19R, E80Q, A99G
notes: Llama sdAb from a phage display library; Tested as sdAb-SASA protein in E. coli expression medium / culture supernatant (FASEBA format), not purified; 3; also called 抗CD3单域抗体; sdAb; not shown: SASA fusion partner of the pFASEBA vector (sdAb-SASA protein)

Experiments:
[1] = molecular target: CD3 on Jurkat cells (UniProt P07766); assay: flow cytometry, culture supernatant on Jurkat cells (negative control)
[2] = molecular target: CD3 on Jurkat cells (UniProt P07766); assay: flow cytometry, culture supernatant on Jurkat cells
[3] = molecular target: T1, CD3-His蛋白(MP-5) (UniProt P07766 23-126); assay: BLI (Octet RED96), off-rate screening; sdAb-SASA from expression medium captured on BSA-coated biosensor, 100 nM CD3 in solution, 1:1 Langmuir fit, 30°C
T1 construct: Immunogen and panning antigen; the construct is not defined; also called CD3蛋白; not shown: His tag
T1 sequence (P07766 23-126): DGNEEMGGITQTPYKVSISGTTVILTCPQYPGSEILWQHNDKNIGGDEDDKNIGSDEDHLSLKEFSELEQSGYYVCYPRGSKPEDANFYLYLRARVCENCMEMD

Molecule | MFI [1] | MFI [2] | koff [3]
NC-sdAb (VHH) | 115 | – | –
B1 | – | 240 | 7.61e-05 s⁻¹
B2 | – | 299 | 0.000153 s⁻¹
